In assay [1] the target is Hydra vulgaris KCC (Hydra vulgaris). The assay can be described thus: SEC.
The target is the same in assay [2]. Description: SEC-MALLS.
Assay [3] addresses Drosophila melanogaster KCC variant B (Drosophila melanogaster). Description: SEC.

As for Hydra vulgaris KCC (natural protein), the stoichiometry N in assay [1] and in assay [2] was 2 throughout. For “Drosophila melanogaster KCC variant B (natural protein)”, the stoichiometry N in assay [3] stood at 2.

The values above are taken from article doi:10.1101/2022.05.12.491617.
